# From paper doi:10.1101/2024.02.28.582571
# Biological target: microtubules assembled from purified bovine brain tubulin (bovine) (UniProt Q6B856)
# Experiment: optical trap rupture force assay; kinetochores held on polystyrene beads through α-penta-His antibody; dynamic microtubules grown from coverslip-anchored GMPCPP seeds with bovine brain tubulin in BRB80, 1 mM GTP; 23 °C; force ramp 0.25 pN/s
# UniProt Q6B856, sequence (Q6B856 whole entry, looked up): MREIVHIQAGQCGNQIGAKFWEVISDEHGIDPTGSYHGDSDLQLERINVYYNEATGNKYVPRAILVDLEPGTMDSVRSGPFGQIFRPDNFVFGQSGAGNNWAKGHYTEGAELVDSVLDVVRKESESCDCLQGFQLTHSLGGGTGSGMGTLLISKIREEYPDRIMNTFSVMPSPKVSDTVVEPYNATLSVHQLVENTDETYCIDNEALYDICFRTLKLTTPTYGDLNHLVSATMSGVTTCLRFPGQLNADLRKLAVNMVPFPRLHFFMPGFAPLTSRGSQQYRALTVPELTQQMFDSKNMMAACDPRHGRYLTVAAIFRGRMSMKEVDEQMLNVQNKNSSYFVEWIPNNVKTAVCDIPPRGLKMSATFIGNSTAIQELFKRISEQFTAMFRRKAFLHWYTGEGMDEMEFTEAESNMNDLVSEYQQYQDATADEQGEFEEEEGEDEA
row,median rupture force,Substance
1,7.5 pN,native kinetochores purified from Kluyveromyces marxianus via Dsn1-6His-3M3DK (from UniProt A0ABX6F0Z3 1-547) (complex)
2,7.2 pN,native kinetochores purified from Saccharomyces cerevisiae via Dsn1-6His-3M3DK (from UniProt P40568 1-576) (complex)
